In patent publication US20240209086A1 (PETMEDIX, published 2024):
Positions count from the first letter of the chain named. One block for each binder: values may come before it.

Assays:
[1] = target: T1, canine CD3εδ-Fc (heterodimer of canine CD3ε-hIgG4PE-knob and canine CD3δ-hIgG4PE-hole) (canine); test: SPR Biacore 8K, single cycle, CD3εδ-Fc amine-coupled on CM5, antibody at 16.5, 33 and 66 nM
T1 construct: also called CD3εδ-Fc fusion protein; copies: 1 + 1
Experimental: Candidates CD3 bispecific antibodies were also screened for their ability to bind canine CD3εδ-Fc using surface plasmon resonance (SPR) using a Biacore 8K (Cytiva). Canine CD3εδ-Fc was covalently bound by amine coupling to the surface of a CM5 chip (Cytiva). CHO cell supernatant was diluted to 66, 33 and 16.5 nM in HBS-EP+ buffer and run on the chip single cycle kinetic protocol. Data was analysed using the dedicated software (Biacore Insight Evaluation Software).

[2] = target: T2, canine CD20 on cells (HEK293, MDCK II, CLBL-1 or native B cells) (canine, UniProt Q3C2E2 1-297); test: flow cytometry, canine CD20 HEK293 cells, FITC anti-canine IgG
T2 construct: also called dCD20; cCD20
T2 chain: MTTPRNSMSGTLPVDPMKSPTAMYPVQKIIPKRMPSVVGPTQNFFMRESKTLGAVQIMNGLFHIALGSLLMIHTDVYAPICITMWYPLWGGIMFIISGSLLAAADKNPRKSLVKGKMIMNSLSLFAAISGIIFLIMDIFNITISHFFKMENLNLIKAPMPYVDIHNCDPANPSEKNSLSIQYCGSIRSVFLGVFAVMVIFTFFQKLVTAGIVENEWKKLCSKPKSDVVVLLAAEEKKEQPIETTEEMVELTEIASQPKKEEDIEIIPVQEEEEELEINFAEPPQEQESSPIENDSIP
Experimental: (§1) A CD20 binding screen was performed on candidate proteins produced from the canine CD20 immunisation as described in Examples 2 and 3. CHO cells supernatants containing candidate antibodies were diluted to 10 μg/ml in FACS buffer (PBS containing 3% FBS) and screened for their ability to bind canine CD20 expressed on cell surface. In brief, 1-2×10⁵ canine CD20-expressing HEK cells were incubated with candidate mAbs for one hour at 4° C., at a fixed concentration of 10 μg/ml followed by incubation with 5 μg/ml of FITC-conjugated anti-canine IgG secondary antibody (Bethyl Laboratories) for 1 hour at 4° C. Cells incubated with anti-canine IgG FITC secondary antibody and without primary anti-canine CD20 antibody, or with isotype control primary antibody, were used as negative controls. The data were acquired on either a Beckman Coulter CytoFLEX or a BD Accuri C6 Plus flow cytometer and analysed using FlowJo software.

[3] = target: T2, canine CD20 on cells (HEK293, MDCK II, …); test: flow cytometry, canine CD20-expressing HEK cells, 10 µg/ml
Experimental: as §1

T1 sequence (chain, as listed by the source mutant limits assumed): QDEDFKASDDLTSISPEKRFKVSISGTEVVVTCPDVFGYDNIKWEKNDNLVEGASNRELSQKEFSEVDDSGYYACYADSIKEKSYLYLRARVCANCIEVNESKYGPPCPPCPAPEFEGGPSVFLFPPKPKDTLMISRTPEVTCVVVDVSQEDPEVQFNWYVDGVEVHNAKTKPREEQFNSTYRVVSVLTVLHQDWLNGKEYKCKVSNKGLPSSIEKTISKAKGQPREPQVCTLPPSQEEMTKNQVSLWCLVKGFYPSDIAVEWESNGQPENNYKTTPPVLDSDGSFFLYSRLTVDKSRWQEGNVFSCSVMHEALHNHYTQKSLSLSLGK

B1: PMX159 in bispecific format (canine CD3 arm PMX159 x Rituximab arm, human IgG4PE knob-in-hole) (bispecific antibody)
heavy 1: ELTLQESGPGLVKPSQTLSLTCVVSGGSVTRSYYWNWIRQRPGRGLEWMGYWTGSTIYNPTFQGRISITADTAKSQFSLQLRSMTTEDTAMYFCAREGGKSLGAFAYWGQGTLVTVSSASTKGPSVFPLAPCSRSTSESTAALGCLVKDYFPEPVTVSWNSGALTSGVHTFPAVLQSSGLYSLSSVVTVPSSSLGTKTYTCNVDHKPSNTKVDKRVESKYGPPCPPCPAPEFEGGPSVFLFPPKPKDTLMISRTPEVTCVVVDVSQEDPEVQFNWYVDGVEVHNAKTKPREEQFNSTYRVVSVLTVLHQDWLNGKEYKCKVSNKGLPSSIEKTISKAKGQPREPQVYTLPPSQCEMTKNQVSLSCAVKGFYPSDIAVEWESNGQPENNYKTTPPVLDSDGSFFLVSRLTVDKSRWQEGNVFSCSVMHEALHNRFTQKSLSLSLGK
light 1: SYVLTQLPSKNVTLKQPAHITCGGDKIGSKNVHWYQQKLGQAPVMIIYYDSSRPTGIPERFSGANSGNTATLTISGALAEDEADYYCQVWDSSAKAAVFGGGTHLTVLRTVAAPSVFIFPPSDEQLKSGTASVVCLLNNFYPREAKVQWKVDNALQSGNSQESVTEQDSKDSTYSLSSTLTLSKADYEKHKVYACEVTHQGLSSPVTKSFNRGEC
heavy 2: not shown
light 2: QIVLSQSPAILSASPGEKVTMTCRASSSVSYIHWFQQKPGSSPKPWIYATSNLASGVPVRFSGSGSGTSYSLTISRVEAEDAATYYCQQWTSNPPTFGGGTKLEIKRTVAAPSVFIFPPSDEQLKSGTASVVCLLNNFYPREAKVQWKVDNALQSGNSQESVTEQDSKDSTYSLSSTLTLSKADYEKHKVYACEVTHQGLSSPVTKSFNRGEC
- binding result [1]: binds

B2: PMX162 in bispecific format (canine CD3 arm PMX162 x Rituximab arm, human IgG4PE knob-in-hole) (bispecific antibody)
heavy 1: EMQLVESGGDLVKPGGSLRLSCVASGFTFSTYHMSWVRQAPGKGLQWVAYSNSGGTRTYYADAVKGRFTISRDNVKNTLYLQMNSLRAEDTAVYYCASEGSGGGRYGFKDYGMDYWGHGTSLFVSTASTKGPSVFPLAPCSRSTSESTAALGCLVKDYFPEPVTVSWNSGALTSGVHTFPAVLQSSGLYSLSSVVTVPSSSLGTKTYTCNVDHKPSNTKVDKRVESKYGPPCPPCPAPEFEGGPSVFLFPPKPKDTLMISRTPEVTCVVVDVSQEDPEVQFNWYVDGVEVHNAKTKPREEQFNSTYRVVSVLTVLHQDWLNGKEYKCKVSNKGLPSSIEKTISKAKGQPREPQVYTLPPSQCEMTKNQVSLSCAVKGFYPSDIAVEWESNGQPENNYKTTPPVLDSDGSFFLVSRLTVDKSRWQEGNVFSCSVMHEALHNRFTQKSLSLSLGK
light 1: B1 light 1 with K26N, N31S, M45L, A97W, G101E, H104Q
heavy 2: not shown
light 2: B1 light 2
- binding result [1]: binds

B4: PMX251 (monospecific anti-canine CD20, canine IgG-B, lambda C5) (antibody, V domains shown)
VH: EVQLVESGGDLVKPGGSLRLSCVASGFTFSSYHMSWVRQAPGKGLQWVAYINSGGSSTSYADAVKGRFTISRDNAKNTLYLQMNSLRAEDTAVYYCASFDYWGQGTLVTVSS
VL: SYVLTQLPSKNVTLKQPAHITCGGDNIGSKSVHWYQQKLGQAPVLIIYYDSSRPTGIPERFSGANSGNTATLTISGALAEDEADYYCQVWDSSANVFGGGTHLTVLG
- binding result [2]: no binding (tested: 10 µg/ml)

Further lines, results first:

- binding result [1]: binds
B3: PMX160 in bispecific format (canine CD3 arm PMX160 x Rituximab arm, human IgG4PE knob-in-hole) (bispecific antibody)
heavy 1: EVQMVESGGDLVKPGGSLRFSCVASGFTFSSYHMSWVRQAPGKGLQWVAYINSGGSRTSYADAVKGRFTISRDNAKNTLYLQMNSLRAEDTAVYYCASGRSPPPLGSFDYGLDYWGHGTSLFVSSASTKGPSVFPLAPCSRSTSESTAALGCLVKDYFPEPVTVSWNSGALTSGVHTFPAVLQSSGLYSLSSVVTVPSSSLGTKTYTCNVDHKPSNTKVDKRVESKYGPPCPPCPAPEFEGGPSVFLFPPKPKDTLMISRTPEVTCVVVDVSQEDPEVQFNWYVDGVEVHNAKTKPREEQFNSTYRVVSVLTVLHQDWLNGKEYKCKVSNKGLPSSIEKTISKAKGQPREPQVYTLPPSQCEMTKNQVSLSCAVKGFYPSDIAVEWESNGQPENNYKTTPPVLDSDGSFFLVSRLTVDKSRWQEGNVFSCSVMHEALHNRFTQKSLSLSLGK
light 1: B1 light 1 with K26N, N31S, M45L, A97W, G101E, H104Q
heavy 2: not shown
light 2: B1 light 2

- binding result [3]: binds
B5: PMX244 (monospecific anti-canine CD20, canine IgG-B, lambda C5) (antibody, V domains shown)
VH: B4 VH with S31R, S57D, T58S, S59D, A97T, F99L
VL: B4 VL with V44I, S51R, S52R, S92R, A94G

- binding result [2]: no binding (tested: 10 µg/ml)
B6: PMX250 (monospecific anti-canine CD20, canine IgG-B, lambda C5) (antibody, V domains shown)
VH: B4 VH with N84T, A97T
VL: B4 VL
